Experiment [1] concerns the target His-tagged SmpB protein (small protein B), wild type (E. coli) (UniProt P0A832). The experiment is described as follows: SPR.
Experiment [2] has the same target. The experiment is described as follows: SPR. The source holds these as a separate data set.

Read-outs that look alike come from different tables or passages of the source.

Chain of UniProt P0A832 (P0A832 whole entry): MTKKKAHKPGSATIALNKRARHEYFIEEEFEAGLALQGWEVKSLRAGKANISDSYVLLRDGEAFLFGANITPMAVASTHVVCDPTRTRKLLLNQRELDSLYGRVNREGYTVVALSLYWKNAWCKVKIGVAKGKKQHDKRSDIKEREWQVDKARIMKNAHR

The term Kd denotes the free concentration of one partner at which half of the binding sites on the other are occupied at equilibrium, for simple one-to-one binding. Higher therefore signals a looser complex. As to 30S ribosomal subunit (complex), the dissociation constant Kd in experiment [1] is 4.4 nM; in experiment [2], 0.17 nM.

As to 50S ribosomal subunit (complex), the dissociation constant Kd came to 4.8 nM in experiment [1] and 0.17 nM in experiment [2].

70S ribosome (complex) gave a Kd in experiment [1] of 7.3 nM.

Values taken from paper PMC1435831.
